{"source": "patent US20140349928A1", "about": "(MEDERIS DIABETES, published 2014)", "target": "GLP-1 receptor", "assay": "cell-based or functional assay", "note": "Non-standard residues stand in square brackets, D forms with d. No end group written: not given here. Aib = CC(C)(N)C(=O)O", "data": [{"binder": "H[Aib]QGT[Me‑Phe]TSDYSKYLD[Aib]K-NH2 (not fully specified (residue 17); also: 1-dodecyl beta-D-glucuronyl surfactant on a linker residue)", "note": "[EU-A391]", "values": [{"measurement": "EC50, cAMP generated in cells (GLP-1 cellular assay)", "value": 420, "unit": "nM"}]}]}
